The target of assay [1] is K11 Ub2. The assay is described as follows: fluorescence competition with 5 nM Atto532-Ub(S20C) and 600 nM tSR.
Assay [2] addresses K63 Ub2. The assay is described as above.
The target of assay [3] is K48 Ub4. The assay is described as above.
The target of assay [4] is T1, Ubiquitin (free, untagged) (UniProt P0CG48 1-76). The assay is described as follows: competition.
Assay [5] addresses T1, Ubiquitin (free, untagged). The assay can be described thus: fluorescence intensity.
Assay [6] addresses T1, Ubiquitin (free, untagged).

Read-outs that look alike come from different tables or passages of the source.

B1: tSR (designed binder)
chain: MPSSHHHHHHSSGLVPRGSHMTEEEQIAYAMQMSLREAGGGSDLLCKKGCGYYGNPAWQGFCSKCWREEAHKCAAERAAAE
Broadly, the Ki is the equilibrium dissociation constant of an inhibitor or competing ligand from its target. Read a high Ki as weaker binding. Consider B1, for which the Ki in assay [1] came out at 4.2 µM; in assay [2], 4.3 µM; in assay [3], 4 µM.

B2: tSR chimeric polypeptide sensor (designed binder)
chain: B1 chain
The molecule B2 registered a Ki in assay [4] of 4.3 µM.

B3: Atto532-tagged tIV L1 Cys (designed binder)
chain: MGSSHHHHHHSSGLVPRGSHMKQEVQAWDGEVRQVSKHAFSLKQLDNPARIPPSGWKCSKCDMRENLWLNLTDGSILCGRRYFDGSGGNNHAVEHYRETGYPLAVKLGTITPDGADVWSYDEDDMVLDPSLAEHLSHFGIDMLKMQKGSCAAAEEAELDLKAAIQESLREA
modifications: Atto532 fluorophore on the Cys of linker 1 (the bold C of the 2nd table)
As usually defined, the Kd is the free concentration of one partner at which half of the binding sites on the other are occupied at equilibrium, for simple one-to-one binding. With B3, the Kd in assay [5] is 0.587 µM. This lies in the sub-micromolar range.

B4: Atto532-tagged IsoT^ZnF (S227C) (designed binder)
chain: MPSSHHHHHHSSGLVPRGSHMKQEVQAWDGEVRQVSKHAFSLKQLDNPARIPPSGWKCSKCDMRENLWLNLTDGSILCGRRYFDGCGGNNHAVEHYRETGYPLAVKLGTITPDGADVYSYDEDDMVLDPSLAEHLSHFGIDMLKMQK
modifications: Atto532 fluorophore on the Cys of S227C (the bold C of the 2nd table)
For B4, the affinity in assay [6], expressed as Kd, was 8.4 µM. This counts as single-digit micromolar.

The values above are taken from patent publication US20180364250A1 (published 2018).
